The text below walks through data of patent US20100093634A1 (UNIVERSITY OF MARYLAND BALTIMORE, published 2010).

The target of assay [1] is N2.1/ROMK chimera with the N375PNF tract replaced with AAAA. The experiment in a line: cell-based or functional assay.
For another assay, the target named is T1, myc-tagged ARH (human, UniProt Q5SW96 1-308, limits assumed).
T1 construct: Expressed in COS-7 cells
T1 sequence: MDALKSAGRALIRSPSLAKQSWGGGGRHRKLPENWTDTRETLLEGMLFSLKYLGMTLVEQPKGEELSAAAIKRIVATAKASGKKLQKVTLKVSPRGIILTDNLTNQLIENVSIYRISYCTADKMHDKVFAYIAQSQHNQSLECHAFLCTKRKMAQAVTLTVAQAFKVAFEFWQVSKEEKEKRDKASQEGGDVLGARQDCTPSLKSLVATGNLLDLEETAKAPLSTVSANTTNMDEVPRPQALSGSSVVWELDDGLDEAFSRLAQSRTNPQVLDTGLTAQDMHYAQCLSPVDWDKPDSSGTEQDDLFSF
Nature of the assay: co-immunoprecipitation from COS-7 cells. As to the method: Using immunofluorescent confocal microscopy it was determined that ARH is predominately expressed in the distal nephron, where it co-localizes with ROMK in subapical and perinuclear compartments (FIG. 2A). See Example D. It was also determined that ROMK co-immunoprecipitates with ARH on anti-ARH antibody-bound beads but not with an unrelated IgG (FIG. 2B). The specificity of the ARH-ROMK co-immunoprecipitation was corroborated by similar studies with different antibodies, HA-epitope-tagged ROMK and myc-tagged-ARH in COS-7 cells (FIGS. 2C & D). Importantly, alanine replacement of the NPNF motif in ROMK completely abrogated the ARH-ROMK co-immunoprecipitation.

On to “ARH co-expressed in COS-7 cells (from UniProt Q5SW96 1-308)”, for which the surface expression in assay [1] worked out at 100%.

B1: HA-epitope-tagged mutant ROMK lacking the NPXF motif (alanine replacement of the NPNF motif) (other)
chain: MGASERSVFRVLIRALTERMFKHLRRWFITHIFGRSRQRARLVSKEGRCNIEFGNVDAQSRFIFFVDIWTTVLDLKWRYKMTVFITAFLGSWFLFGLLWYVVAYVHKDLPEFYPPDNRTPCVENINGMTSAFLFSLETQVTIGYGFRFVTEQCATAIFLLIFQSILGVIINSFMCGAILAKISRPKKRAKTITFSKNAVISKRGGKLCLLIRVANLRKSLLIGSHIYGKLLKTTITPEGETIILDQTNINFVVDAGNENLFFISPLTIYHIIDHNSPFFHMAAETLSQQDFELVVFLDGTVESTSATCQVRTSYVPEEVLWGYRFVPIVSKTKEGKYRVDFHNFGKTVEVETPHCAMCLYNEKDARARMKRGYDAAAAVLSEVDETDDTQM
notes: Expressed in COS-7 cells
For B1, the binding result with myc-tagged ARH is listed as “no binding”.
